From patent publication US12319739 (F STAR DELTA, dated 2025)

Columns and labels:
[1] = target: T1, human CD137 on primary human CD8+ T cells (human, UniProt Q07011 24-255); experiment: cell-based or functional assay
[2] = target: T2, cMSLN-His-Avi (cynomolgus, single biotin on the Avi tag in the biotinylated form); experiment: SPR, mAb2 captured on Protein G, cMSLN-His-Avi in solution
T2 construct: Monomeric; also called cyno MSLN-His-Avi; cMSLN-Avi-His
T2 chain: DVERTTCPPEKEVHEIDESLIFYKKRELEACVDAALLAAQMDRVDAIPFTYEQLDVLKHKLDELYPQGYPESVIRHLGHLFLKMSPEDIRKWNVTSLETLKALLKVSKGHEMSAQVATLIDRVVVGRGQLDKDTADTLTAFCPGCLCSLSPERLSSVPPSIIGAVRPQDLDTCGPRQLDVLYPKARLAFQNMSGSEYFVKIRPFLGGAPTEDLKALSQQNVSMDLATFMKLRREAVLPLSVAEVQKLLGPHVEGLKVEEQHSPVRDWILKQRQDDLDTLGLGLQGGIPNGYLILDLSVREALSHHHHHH
Protocol: (§1) The association time was 5 min and the dissociation time was 5 min. Running buffer was HBS-EP (GE Healthcare BR100188). Flow cells were regenerated by injecting Glycine-HCl pH2.1 at a flow rate of 30 μl/min for 15 seconds. The data was analysed as described in Example 7.1.

[3] = target: T3, endogenous cell surface human MSLN (human, UniProt Q13421 296-598); experiment: flow cytometry, NCI-H226 cells
T3 construct: whole, on cells; The cell line is named under assay; also called cell-surface MSLN on NCI-H226, OVCAR-3 and AsPC-1 cells
T3 sequence (Q13421 other isoform, or with tags, fused parts or gaps limits assumed): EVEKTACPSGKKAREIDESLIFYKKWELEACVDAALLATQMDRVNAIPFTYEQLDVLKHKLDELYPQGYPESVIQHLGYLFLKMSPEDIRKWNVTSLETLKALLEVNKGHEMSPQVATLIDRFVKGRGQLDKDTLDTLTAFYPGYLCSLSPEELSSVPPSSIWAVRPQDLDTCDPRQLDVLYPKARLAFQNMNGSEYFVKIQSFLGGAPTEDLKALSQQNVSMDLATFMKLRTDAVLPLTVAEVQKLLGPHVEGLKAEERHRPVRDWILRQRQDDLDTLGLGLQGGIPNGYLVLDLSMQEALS
Protocol: (§2) To confirm binding to cell surface MSLN, mAb² listed in Table 9 were analysed for binding to endogenous cell surface MSLN on the human lung cancer cell line NCI-H226. In addition, and because MSLN can be found in blood in a shed soluble form, there is a risk that this circulating MSLN might affect exposure and ultimately potency of our mAb². To confirm that presence of soluble MSLN has minimal impact, additional binding experiments to NCI-H226 cells were performed in the presence of 20 nM soluble MSLN which is 10-20 times the level of soluble MSLN found to be of diagnostic value for defining malignant mesothelioma and lung cancer patients as MSLN positive (Cui et al., 2014). Briefly, NCI-H226 cells (ATCC CRL-5826) were harvested from T175 cell culture flasks using Accutase (Gibco, A11105-01).
(§3) In both cases, cells were centrifuged at 1200 rpm for 3 min and resuspended in ice cold FACS buffer made up of DPBS (Life Technologies, 14190169) and 1% BSA (Sigma-Aldrich, A7906) at 2×10⁶ cells/ml and 50 μl per well was seeded in a 96-well V-bottom plate (Costar, 3894). All antibodies tested were diluted in FACS buffer in 120 μl at a concentration range of 0.01-200 nM (4-fold dilutions). The NCI-H226 cells were then centrifuged, supernatant removed and cells resuspended in 100 μl of each mAb dilution and incubated at 4° C. for 45 min. Cells were washed twice by centrifugation with 150 μl FACS buffer, resuspended in 100 μl containing goat anti-human IgG (γ-chain specific) F(ab')2 fragment-R-Phycoerythrin antibody (Sigma, P8047) diluted 1:1000 in FACS buffer and incubated at 4° C. for 45 min. The cells were washed once with 150 μl FACS buffer and then with 150 μl DPBS, resuspended in 150 μl DPBS containing DAPI (Biotium, 40043) at 1:10.000 and read on the BDCantoII or iQue (Intellicyt).

[4] = target: T3, endogenous cell surface human MSLN; experiment: flow cytometry, NCI-H226 cells + 20 nM soluble MSLN
Protocol: as §2, §3

[5] = target: T4, hMSLN-His-Avi (human, UniProt Q13421 296-598, single biotin on the Avi tag in the biotinylated form); experiment: ratio of SPR KDs
T4 construct: Monomeric; also called human MSLN-His-Avi; hMSLN-Avi-His
T4 sequence (Q13421 other isoform, or with tags, fused parts or gaps): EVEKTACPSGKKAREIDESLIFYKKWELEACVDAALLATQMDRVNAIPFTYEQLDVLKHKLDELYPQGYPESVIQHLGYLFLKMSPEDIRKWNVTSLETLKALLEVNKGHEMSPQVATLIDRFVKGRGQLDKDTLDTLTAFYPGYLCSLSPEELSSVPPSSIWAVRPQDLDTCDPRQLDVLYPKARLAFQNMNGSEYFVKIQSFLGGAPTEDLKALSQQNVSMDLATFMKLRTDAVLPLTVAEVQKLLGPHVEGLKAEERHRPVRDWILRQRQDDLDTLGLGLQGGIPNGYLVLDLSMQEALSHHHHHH
Protocol: (§4) 7.1 Binding of CD137/MSLN mAb2 to Human MSLN Under Avid Conditions—Antigen Capture Method Binding of all mAb^2 to MSLN immobilised on a BIAcore chip was tested to determine the binding affinity to human MSLN under avid conditions, where a high concentration of immobilised antigen is available to allow the antibody to bind avidly. […] The association time was 5 min and the dissociation time was 10 min. Running buffer was HBS-EP (GE Healthcare BR100188). Flow cells were regenerated by injecting Glycine-HCl pH1.5 at a flow rate of 30 μl/min for 30 seconds. Data were analysed by double referencing against a flow cell which was intentionally left blank (no antigen coating). The binding kinetics were fitted with a 1:1 Langmuir model to generate binding association (k_a) and dissociation (k_d) rates. Equilibrium binding constants (K_D) were calculated by dividing the dissociation rate by the association rate for each sample. Data analysis was performed with BiaEvaluation software version 3.2.
as §1

[6] = target: T4, hMSLN-His-Avi; experiment: SPR, hMSLN-His-Avi immobilised ~100 RU, mAb2 injected
Protocol: as §4

[7] = target: T4, hMSLN-His-Avi; experiment: SPR, mAb2 captured on Protein G, hMSLN-His-Avi in solution
Protocol: as §1

[8] = target: T1, human CD137 on primary human CD8+ T …; experiment: cell-based or functional assay; remark: listed apart in the source
[9] = target: T4, hMSLN-His-Avi; experiment: SPR, hMSLN-His-Avi immobilised
[10] = target: T1, human CD137 on primary human CD8+ T …; experiment: cell-based or functional assay; remark: listed apart in the source
[11] = target: T4, hMSLN-His-Avi; experiment: ratio of SPR KDs; remark: listed apart in the source
[12] = target: T4, hMSLN-His-Avi; experiment: SPR, hMSLN-His-Avi in solution

T1 sequence (Q07011 24-255): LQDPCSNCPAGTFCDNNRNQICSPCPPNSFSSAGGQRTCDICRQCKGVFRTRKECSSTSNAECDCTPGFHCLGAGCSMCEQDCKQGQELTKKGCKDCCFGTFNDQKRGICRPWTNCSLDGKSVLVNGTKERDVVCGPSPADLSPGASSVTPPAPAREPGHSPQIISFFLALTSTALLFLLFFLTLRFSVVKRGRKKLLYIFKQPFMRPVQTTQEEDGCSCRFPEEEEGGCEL

B1: 20H4.9 (antibody, V domains shown)
VH: QVQLQQWGAGLLKPSETLSLTCAVYGGSFSGYYWSWIRQSPEKGLEWIGEINHGGYVTYNPSLESRVTISVDTSKNQFSLKLSSVTAADTAVYYCARDYGPGNYDWYFDLWGRGTLVTVSS
VL: EIVLTQSPATLSLSPGERATLSCRASQSVSSYLAWYQQKPGQAPRLLIYDASNRATGIPARFSGSGSGTDFTLTISSLEPEDFAVYYCQQRSNWPPALTFGGGTKVEIKR
IL-2 release EC50, CD8+ T cell assay [1]: 0.5 nM

B2: FS22-172-003-AA/FS28-256-024 (bispecific antibody, human IgG1, kappa, L234A L235A, V domains shown)
VH: EVQLLESGGGLVQPGGSLRLSCAASGFTFTHTYMSWVRQAPGKGLEWVSNISPTYSTTNYADSVKGRFTISRDNNKNTLYLQMNSLRAEDTAVYYCARYNAYHAALDYWGQGTLVTVSS
VL: EIVLTQSPGTLSLSPGERATLSCRASQSVSSSYLAWYQQKPGQAPRLLIYGASSRATGIPDRFSGSGSGTDFTLTISRLEPEDFAVYYCQQALGYPHTFGQGTKVEIKR
notes: IgG1 mAb^2 with LALA
Kd [2]: 57.2 nM | EC50 [3]: 3.4 nM | Emax (MFI) [3]: 647000 MFI | EC50 [4]: 5.24 nM | Emax (MFI) [4]: 675000 MFI | KD ratio in solution/immobilised human MSLN [5]: 18 | Kd [6]: 4.74 nM | Kd [7]: 86.6 nM | Emax (IL-2 pg/ml), NCI-H226 co-culture, Donor A [8]: 2120 pg/mL | Emax (IL-2 pg/ml), NCI-H226 co-culture, Donor B [8]: 1090 pg/mL | IL-2 release EC50, NCI-H226 co-culture, Donor A [8]: 1.29 nM | IL-2 release EC50, NCI-H226 co-culture, Donor B [8]: 0.61 nM

B3: FS22-172-003-AA/FS28-256-273 (bispecific antibody, human IgG1, kappa, L234A L235A, V domains shown)
VH: EVQLLESGGGLVQPGGSLRLSCAASGFTFTHTYMSWVRQAPGKGLEWVSSISPTYSTTNYADSVKGRFTISRDNNKNTLYLQMNSLRAEDTAVYYCARYNAYHAALDYWGQGTLVTVSS
VL: EIVLTQSPGTLSLSPGERATLSCRASQSVSSSYLAWYQQKPGQAPRLLIYGASSRATGIPDRFSGSGSGTDFTLTISRLEPEDFAVYYCQQTVPYPYTFGQGTKVEIKR
notes: IgG1 mAb^2 with LALA
Kd [9]: 6 nM | IL-2 release EC50, NCI-H226 co-culture, +2 nM sMSLN [10]: 0.0616 nM | IL-2 release EC50, NCI-H226 co-culture, +20 nM sMSLN [10]: 0.366 nM | IL-2 release EC50, NCI-H226 co-culture, no sMSLN [10]: 0.0791 nM | ratio of KD in solution/immobilised [11]: 1.2 | KD ratio in solution/immobilised human MSLN [5]: 1.2 | Kd [6]: 6 nM | Kd [7]: 7.4 nM | fold change of IL-2 EC50 with 20 nM sMSLN against none, NCI-H226 co-culture [1]: > 4 fold | Kd [12]: 7.4 nM

B4: FS22-172-003-AA/FS28-256-026 (bispecific antibody, human IgG1, kappa, L234A L235A, V domains shown)
VH: EVQLLESGGGLVQPGGSLRLSCAASGFTFTQTYMSWVRQAPGKGLEWVSNISPTYSTTNYADSVKGRFTISRDNSKNTLYLQMNSLRAEDTAVYYCARYNAYQIGLDYWGQGTLVTVSS
VL: EIVLTQSPGTLSLSPGERATLSCRASQSVSSSYLAWYQQKPGQAPRLLIYGASSRATGIPDRFSGSGSGTDFTLTISRLEPEDFAVYYCQQALGYPHTFGQGTKVEIKR
notes: IgG1 mAb^2 with LALA
Kd [2]: 33.1 nM | EC50 [3]: 1.47 nM | Emax (MFI) [3]: 634000 MFI | EC50 [4]: 2.68 nM | Emax (MFI) [4]: 688000 MFI | KD ratio in solution/immobilised human MSLN [5]: 18 | Kd [6]: 3.19 nM | Kd [7]: 57.9 nM | Emax (IL-2 pg/ml), NCI-H226 co-culture, Donor A [8]: 2060 pg/mL | Emax (IL-2 pg/ml), NCI-H226 co-culture, Donor B [8]: 932 pg/mL | IL-2 release EC50, NCI-H226 co-culture, Donor A [8]: 0.67 nM | IL-2 release EC50, NCI-H226 co-culture, Donor B [8]: 0.23 nM

B5: FS28-256-274 (in CD137 mAb^2 format) (bispecific antibody, V domains shown)
VH: EVQLLESGGGLVQPGGSLRLSCAASGFTFTHTYMSWVRQAPGKGLEWVSTISPTYSTTNYADSVKGRFTISRDNNKNTLYLQMNSLRAEDTAVYYCARYNAYHAALDYWGQGTLVTVSS
VL: EIVLTQSPGTLSLSPGERATLSCRASQSVSSSYLAWYQQKPGQAPRLLIYGASSRATGIPDRFSGSGSGTDFTLTISRLEPEDFAVYYCQQTVPYPYTFGQGTKVEIKR
notes: Position 55 is IMGT numbering
Kd [9]: 19.8 nM | ratio of KD in solution/immobilised [11]: 2.8 | Kd [12]: 55.9 nM

B6: FS22-172-003-AA/FS28-256-272 (bispecific antibody, human IgG1, kappa, L234A L235A, V domains shown)
VH: EVQLLESGGGLVQPGGSLRLSCAASGFTFTHTYMSWVRQAPGKGLEWVSHISPTYSTTNYADSVKGRFTISRDNNKNTLYLQMNSLRAEDTAVYYCARYNAYHAALDYWGQGTLVTVSS
VL: EIVLTQSPGTLSLSPGERATLSCRASQSVSSSYLAWYQQKPGQAPRLLIYGASSRATGIPDRFSGSGSGTDFTLTISRLEPEDFAVYYCQQTVPYPYTFGQGTKVEIKR
notes: IgG1 mAb^2 with LALA
Kd [9]: 10.7 nM | IL-2 release EC50, NCI-H226 co-culture, +2 nM sMSLN [10]: 0.13 nM | IL-2 release EC50, NCI-H226 co-culture, +20 nM sMSLN [10]: 0.684 nM | IL-2 release EC50, NCI-H226 co-culture, no sMSLN [10]: 0.122 nM | ratio of KD in solution/immobilised [11]: 0.7 | KD ratio in solution/immobilised human MSLN [5]: 0.7 | Kd [6]: 10.7 nM | Kd [7]: 7.6 nM | fold change of IL-2 EC50 with 20 nM sMSLN against none, NCI-H226 co-culture [1]: > 4 fold | Kd [12]: 7.6 nM

B7: FS22-172-003-AA/FS28-256-027 (bispecific antibody, human IgG1, kappa, L234A L235A, V domains shown)
VH: EVQLLESGGGLVQPGGSLRLSCAASGFTFTHTYMSWVRQAPGKGLEWVSNISPTYSTTNYADSVKGRFTISRDNNKNTLYLQMNSLRAEDTAVYYCARYNAYHAALDYWGQGTLVTVSS
VL: EIVLTQSPGTLSLSPGERATLSCRASQSVSSSYLAWYQQKPGQAPRLLIYGASSRATGIPDRFSGSGSGTDFTLTISRLEPEDFAVYYCQQTVPYPYTFGQGTKVEIKR
notes: IgG1 mAb^2 with LALA
Kd [2]: 1.06 nM | EC50 [3]: 0.613 nM | Emax (MFI) [3]: 801000 MFI | EC50 [4]: 2.31 nM | Emax (MFI) [4]: 686000 MFI | KD ratio in solution/immobilised human MSLN [5]: 7 | Kd [6]: 0.78 nM | Kd [7]: 5.84 nM | fold change of IL-2 EC50 with 20 nM sMSLN against none, NCI-H226 co-culture [1]: 6.6 fold | Emax (IL-2 pg/ml), NCI-H226 co-culture, Donor A [8]: 2110 pg/mL | IL-2 release EC50, NCI-H226 co-culture, Donor A [8]: 0.05 nM
